Molecular target: the molecule itself
Assay: X-ray crystallography, crystallographic symmetry applied (self-association, homotrimer)

B1: NAGLU-kif (recombinant human alpha-N-acetylglucosaminidase expressed in HT1080 cells treated with kifunensine) (enzyme)
chain: DEAREAAAVRALVARLLGPGPAADFSVSVERALAAKPGLDTYSLGGGGAARVRVRGSTGVAAAAGLHRYLRDFCGCHVAWSGSQLRLPRPLPAVPGELTEATPNRYRYYQNVCTQSYSFVWWDWARWEREIDWMALNGINLALAWSGQEAIWQRVYLALGLTQAEINEFFTGPAFLAWGRMGNLHTWDGPLPPSWHIKQLYLQHRVLDQMRSFGMTPVLPAFAGHVPEAVTRVFPQVNVTKMGSWGHFNCSYSCSFLLAPEDPIFPIIGSLFLRELIKEFGTDHIYGADTFNEMQPPSSEPSYLAAATTAVYEAMTAVDTEAVWLLQGWLFQHQPQFWGPAQIRAVLGAVPRGRLLVLDLFAESQPVYTRTASFQGQPFIWCMLHNFGGNHGLFGALEAVNGGPEAARLFPNSTMVGTGMAPEGISQNEVVYSLMAELGWRKDPVPDLAAWVTSFAARRYGVSHPDAGAAWRLLLRSVYNCSGEACRGHNRSPLVRRPSLQMNTSIWYNRSDVFEAWRLLLTSAPSLATSPAFRYDLLDLTRQAVQELVSLYYEEARSAYLSKELASLLRAGGVLAYELLPALDEVLASDSRFLLGSWLEQARAAAVSEAEADFYEQNSRYQLTLWGPEGNILDYANKQLAGLVANYYTPRWRLFLEALVDSVAQGIPFQQHQFDKNVFQLEQAFVLSKQRYPSQPRGDTVDLAKKIFLKYYPRWVAGSW
modifications: N-linked high mannose glycans at N261, N272, N435, N503, N526 and N532 (numbered as amino acids 24-743)
notes: There is one molecule in the asymmetric unit, and the trimer is generated by crystallographic symmetry; also called NAGLU24-743; Naglu-kif R3
binding result: binds
